molecular target: T1, HLA-A*0201 on T2 cells (human); test: T2 cell HLA-A*0201 stabilisation; 100 µM peptide overnight, Brefeldin A, BB7.2 mAb staining, flow cytometry; MFI minus no-peptide control
T1 construct: the class I molecule on T2 cells that the added peptide stabilises; also called HLA-A2; HLA-A2 molecules
Method: The cells were then incubated with Brefeldin A (Sigma, St. Louis, Mo.) at 10 μg/ml for 1 hour, washed, incubated at 37° C. for 0, 3, or 6 hours in the presence of Brefeldin A (0.5 μg/ml), and then stained with BB7.2 mAb.

Binder | MFI (0 hour) [MFI] | MFI (3 hour) [MFI] | MFI (6 hour) [MFI]
LLFIILMPLV (Free peptide added to T2 cells; also called peptide 117) [CD133-117] | 5.5 | 7.5 | 1.01
GLLERVTRI (Free peptide added to T2 cells; also called peptide 708) [CD133-708] | 13.1 | 14.8 | 1.3
FLLPALIFAV (Free peptide added to T2 cells; also called peptide 804) [CD133-804] | 89 | 67.6 | 34.7
SLNDPLCLV (Free peptide added to T2 cells; also called peptide 301) [CD133-301] | 10.7 | 14.3 | 13.3
ILSAFSVYV (Free peptide added to T2 cells) [CD133-405] | 79.7 | 69.3 | 44.5

molecular target: T1, HLA-A*0201 on T2 cells; test: T2 cells incubated overnight with 0, 10 or 100 µM peptide, Brefeldin A, BB7.2 mAb staining, flow cytometry; fluorescence increased in a dose-dependent manner
Method: T2 cells were incubated overnight with 0 μM, 10 μM, or 100 μM of SEQ ID NO:11. The cells were then incubated with Brefeldin A (Sigma, St. Louis, Mo.) at 10 μg/ml for 1 hour, washed, incubated at 37° C. in the presence of Brefeldin A (0.5 μg/ml), and then stained with BB7.2 mAb. Fluorescence intensity was measured by flow cytometry.

Binder | binding result
MLLQVSHYL (Free peptide added to T2 cells at 0, 10 or 100 µM; also called mouse peptide) [mouse counterpart of SEQ ID NO:1, MLLQVSHYL (SEQ ID NO:11)] | binds
